# Experimental data: the RNAGym collection of RNA variant scans (doi:10.1093/nar/gkz1192)
# B1: CPEB3 Ribozyme (parent)
# chain: UAACAGGGGGCCACAGCAGAAGCGUUCACGUCGCAGCCCCUGUCAGAUUCUGGUGAAUCUGCGAAUUCUGCUGUAUAUCUC
# Variants of: B1
# Test: self-cleavage, relative activity (ratio to wild type); higher = more cleavage; in vitro, sequencing
# In short: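 Relative activity compares each variant's cleaved/total read fraction with that of the unmutated ribozyme. To get these fractions, barcoded CPEB3 ribozyme libraries from rounds of error-prone PCR were transcribed with T7 RNA polymerase for 5 hours at 37°C and then given 15 min of DNase I treatment before EDTA was added. The RNAs were reverse transcribed with template switching and sequenced on Illumina, and DNA sequencing linked barcodes to variants. A minimum of 5 reads applied, and three batches were averaged.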
row,Variant,self-cleavage
1,C32A U58A,0.37
2,C32A U60A,0.17
3,C32A U66C,0.16
4,C32A U67A,0.13
5,C32A U69A,0.18
6,C32A U69C,0.07
7,C32A U72A,0.12
8,C32A U72C,0.17
9,C32A U72G,0.19
10,C32A U74C,0.22
11,C32A U76C,0.25
12,C32A U78C,0.2
13,C32A U80A,0.37
14,C32A U80C,0.69
15,C32G,0.23
16,C32G A45C,0.12
17,C32G A45U,0.08
18,C32G A56G,0.12
19,C32G A57G,0.1
20,C32G A77U,0.2
21,C32G C37U,0.31
22,C32G C40U,0.22
23,C32G C44U,0.12
24,C32G G63A,0.14

row,Variant,self-cleavage
1,C32G G73A,0.22
2,C32G U41A,0.32
3,C32G U41G,0.11
4,C32G U43C,0.37
5,C32G U49C,0.11
6,C32G U51A,0.04
7,C32G U54A,0.19
8,C32G U67C,0.09
9,C32G U69C,0.44
10,C32G U72C,0.11
11,C32G U78C,0.09
12,C32G U80A,0.1
13,C32G U80C,0.08
14,C32U,0.28
15,C32U A35C,0.18
16,C32U A35G,0.18
17,C32U A35U,0.32
18,C32U A45C,0.15
19,C32U A45G,0.15
20,C32U A45U,0.3
21,C32U A47G,0.19
22,C32U A47U,0.32
23,C32U A56G,0.17
24,C32U A56U,0.19

row,Variant,self-cleavage
1,C32U A57C,0.13
2,C32U A57G,0.22
3,C32U A57U,0.13
4,C32U A64G,0.3
5,C32U A64U,0.13
6,C32U A65G,0.21
7,C32U A65U,0.13
8,C32U A75G,0.11
9,C32U A77C,0.15
10,C32U C34U,0.19
11,C32U C38U,0.08
12,C32U C39A,0.15
13,C32U C59U,0.12
14,C32U C68G,0.13
15,C32U C68U,0.2
16,C32U C79A,0.22
17,C32U C81U,0.37
18,C32U G42A,0.19
19,C32U G46A,0.15
20,C32U G52C,0.2
21,C32U G53A,0.27
22,C32U G55A,0.14
23,C32U G61C,0.18
24,C32U G63A,0.46

row,Variant,self-cleavage
1,C32U G70A,0.21
2,C32U U41A,0.27
3,C32U U41C,0.26
4,C32U U43A,0.43
5,C32U U43C,0.25
6,C32U U48C,0.13
7,C32U U49A,0.15
8,C32U U49C,0.21
9,C32U U51A,0.19
10,C32U U51C,0.16
11,C32U U51G,0.22
12,C32U U54A,0.2
13,C32U U54C,0.33
14,C32U U58A,0.14
15,C32U U58C,0.35
16,C32U U60A,0.21
17,C32U U60C,0.18
18,C32U U60G,0.4
19,C32U U66A,0.22
20,C32U U66C,0.22
21,C32U U67C,0.19
22,C32U U69A,0.23
23,C32U U69C,0.17
24,C32U U72A,0.11

row,Variant,self-cleavage
1,C32U U72C,0.4
2,C32U U74C,0.38
3,C32U U74G,0.09
4,C32U U76A,0.18
5,C32U U76C,0.2
6,C32U U78C,0.25
7,C32U U80C,0.44
8,G33A,0.28
9,G33A A35G,0.39
10,G33A A35U,0.21
11,G33A A45C,0.22
12,G33A A45G,0.24
13,G33A A45U,0.39
14,G33A A47G,0.4
15,G33A A56G,0.28
16,G33A A56U,0.18
17,G33A A57C,0.11
18,G33A A57G,0.25
19,G33A A64G,0.16
20,G33A A64U,0.28
21,G33A A65C,0.11
22,G33A A65G,0.35
23,G33A A75U,0.11
24,G33A A77G,0.18

row,Variant,self-cleavage
1,G33A A77U,0.23
2,G33A C39U,0.16
3,G33A C40A,0.19
4,G33A C40G,0.2
5,G33A C40U,0.38
6,G33A C50G,0.22
7,G33A C50U,0.1
8,G33A C59U,0.24
9,G33A C62A,0.37
10,G33A C62U,0.11
11,G33A C68G,0.11
12,G33A C68U,0.19
13,G33A C79A,0.23
14,G33A G36A,0.07
15,G33A G42U,0.39
16,G33A G52A,0.3
17,G33A G52C,0.12
18,G33A G61A,0.14
19,G33A G63A,0.14
20,G33A G63U,0.1
21,G33A G70C,0.26
22,G33A G70U,0.71
23,G33A G73A,0.51
24,G33A U41A,0.41

row,Variant,self-cleavage
1,G33A U41C,0.39
2,G33A U43A,0.32
3,G33A U43C,0.29
4,G33A U43G,0.34
5,G33A U48C,0.26
6,G33A U48G,0.18
7,G33A U49A,0.29
8,G33A U49C,0.28
9,G33A U51A,0.26
10,G33A U51C,0.37
11,G33A U51G,0.19
12,G33A U54A,0.18
13,G33A U54C,0.15
14,G33A U58C,0.08
15,G33A U60A,0.15
16,G33A U60C,0.24
17,G33A U66A,0.18
18,G33A U66C,0.31
19,G33A U67A,0.15
20,G33A U67C,0.22
21,G33A U69C,0.27
22,G33A U69G,0.16
23,G33A U72A,0.23
24,G33A U72C,0.26

row,Variant,self-cleavage
1,G33A U72G,0.24
2,G33A U74A,0.33
3,G33A U74C,0.57
4,G33A U76C,0.19
5,G33A U78A,0.04
6,G33A U78C,0.2
7,G33A U80A,0.29
8,G33A U80C,0.31
9,G33A U80G,0.14
10,G33C,0.23
11,G33C A35G,0.22
12,G33C A35U,0.14
13,G33C A45G,0.23
14,G33C A45U,0.17
15,G33C A47G,0.08
16,G33C A56G,0.12
17,G33C A56U,0.14
18,G33C A57G,0.13
19,G33C A64G,0.18
20,G33C A65C,0.1
21,G33C A65G,0.18
22,G33C A75G,0.18
23,G33C A77G,0.11
24,G33C C38U,0.12

row,Variant,self-cleavage
1,G33C C40A,0.15
2,G33C C62U,0.14
3,G33C C79U,0.19
4,G33C G36C,0.15
5,G33C G52A,0.19
6,G33C G53C,0.07
7,G33C U41A,0.16
8,G33C U43A,0.18
9,G33C U43C,0.22
10,G33C U48A,0.15
11,G33C U48C,0.44
12,G33C U49C,0.12
13,G33C U51A,0.15
14,G33C U51C,0.44
15,G33C U54C,0.13
16,G33C U60A,0.25
17,G33C U60C,0.11
18,G33C U60G,0.12
19,G33C U67A,0.17
20,G33C U67C,0.12
21,G33C U69A,0.07
22,G33C U69C,0.13
23,G33C U72A,0.09
24,G33C U72C,0.19

row,Variant,self-cleavage
1,G33C U76C,0.12
2,G33C U78A,0.08
3,G33C U78C,0.09
4,G33C U80C,0.27
5,G33U,0.24
6,G33U A35U,0.15
7,G33U A45C,0.12
8,G33U A45G,0.13
9,G33U A56G,0.29
10,G33U A56U,0.42
11,G33U A57G,0.28
12,G33U A64G,0.12
13,G33U A65G,0.43
14,G33U A65U,0.13
15,G33U A75U,0.81
16,G33U C38A,0.2
17,G33U C38U,0.36
18,G33U G36U,0.13
19,G33U G46A,0.44
20,G33U G61C,0.13
21,G33U U41A,0.18
22,G33U U41C,0.25
23,G33U U43C,0.48
24,G33U U48C,0.08

row,Variant,self-cleavage
1,G33U U49C,0.15
2,G33U U49G,0.2
3,G33U U51C,0.09
4,G33U U51G,0.09
5,G33U U58C,0.13
6,G33U U60A,0.48
7,G33U U60C,0.11
8,G33U U66A,0.16
9,G33U U66C,0.13
10,G33U U67C,0.16
11,G33U U69C,0.2
12,G33U U72C,0.19
13,G33U U72G,0.28
14,G33U U76C,0.32
15,G33U U80A,0.25
16,G33U U80C,0.44
17,C34A,0.34
18,C34A A35G,1.07
19,C34A A45C,0.19
20,C34A A45G,0.37
21,C34A A47G,0.31
22,C34A A56G,0.22
23,C34A A56U,0.43
24,C34A A57G,0.35

row,Variant,self-cleavage
1,C34A A64G,0.14
2,C34A A65G,0.26
3,C34A C44U,0.08
4,C34A G46U,0.15
5,C34A G70C,0.17
6,C34A U41G,0.39
7,C34A U48C,0.13
8,C34A U54A,0.17
9,C34A U60C,0.14
10,C34A U66C,0.46
11,C34A U67A,0.33
12,C34A U67C,0.29
13,C34A U69A,0.07
14,C34A U69C,0.07
15,C34A U74G,0.29
16,C34A U78A,0.16
17,C34A U78C,0.32
18,C34A U80C,0.34
19,C34A U80G,0.33
20,C34G,0.33
21,C34G A35G,0.86
22,C34G A45C,0.19
23,C34G A56G,0.18
24,C34G A75G,0.15

row,Variant,self-cleavage
1,C34G A77C,0.08
2,C34G C44A,0.1
3,C34G C59A,0.18
4,C34G C59G,0.14
5,C34G C62G,0.04
6,C34G C68A,0.1
7,C34G C68U,0.15
8,C34G C71U,0.52
9,C34G G42A,0.62
10,C34G G63C,0.24
11,C34G U41C,0.14
12,C34G U48C,0.21
13,C34G U49A,0.24
14,C34G U49C,0.07
15,C34G U51C,0.29
16,C34G U58A,0.11
17,C34G U58C,0.15
18,C34G U60C,0.15
19,C34G U66C,0.23
20,C34G U67C,0.13
21,C34G U69A,0.3
22,C34G U69C,0.21
23,C34G U72A,0.08
24,C34G U72C,0.22

row,Variant,self-cleavage
1,C34G U72G,0.15
2,C34G U76G,0.32
3,C34G U78A,0.26
4,C34G U78C,0.22
5,C34G U80C,0.24
6,C34U,0.35
7,C34U A35G,0.36
8,C34U A35U,0.27
9,C34U A45C,0.17
10,C34U A45G,0.34
11,C34U A47C,0.41
12,C34U A47G,0.43
13,C34U A47U,0.17
14,C34U A56G,0.48
15,C34U A56U,0.34
16,C34U A64G,0.45
17,C34U A64U,0.13
18,C34U A65G,0.34
19,C34U A75G,0.18
20,C34U C44A,0.38
21,C34U C68U,0.3
22,C34U C71A,0.13
